Experimental findings from paper PMC12392863, “Natural Design of a Stabilized Cross‐β Fold: Structure of the FuA FapC from Pseudomonas Sp. UK4 Reveals a Critical Role for Stacking of Imperfect Repeats” (Advanced Materials (Deerfield Beach, Fla.), 2025) are described below.

Data set [1] deals with FapC from P. fluorescens Pf5, wild type (P. fluorescens Pf5) (UniProt P0DXF5). Nature of the data set: formic acid dissolution of fibrils with SDS-PAGE; mature fibrils in 0-100% formic acid, 30 min, room temperature; centrifuged; released monomer in the supernatant on SDS-PAGE, normalised to 100% FA.
Data set [2] has as its target FapC from Pseudomonas aeruginosa PAO1, wild type (Pseudomonas aeruginosa PAO1). Put plainly: seeded ThT fibrillation kinetics, global fit with AmyloFit; 5 µM FapC UK4 monomer with 0-10% v/v sonicated fibril seeds of UK4, PAO1, Pf5 or F1 FapC; 40 µM ThT, 50 mM Tris/HCl pH 7.4, 37 °C, no shaking; constants of monomer addition to (k+) and release from (Koff) fibrils; time in hours.

Data set [3] concerns the target FapC from Pseudomonas fluorescens Pf5, wild type (P. fluorescens Pf5). The data set is described as above.
Data set [4] has as its target FapC from Pseudomonas putida F1, wild type (Pseudomonas putida F1). The description is as above.
The target is the same in data set [5]. Put plainly: formic acid dissolution of fibrils with SDS-PAGE; mature fibrils in 0-100% formic acid, 30 min, room temperature; centrifuged; released monomer in the supernatant on SDS-PAGE, normalised to 100% FA.
Data set [6] concerns the molecule itself. Nature of the data set: ThT fluorescence fibrillation kinetics; self-assembly into amyloid without seeds; 15 µM FapC (wt or mutant; wt also 1-15 µM), 50 mM Tris/HCl pH 7.4, 40 µM ThT, 37 °C, no shaking, followed for 120 h.

Changes are numbered by the printed parent chain. Numbers in names are those of the source.

As to “FapC from P. fluorescens Pf5, wild type (from UniProt P0DXF5 25-250) (natural protein)”, in data set [1], the formic acid needed to dissolve half of the fibrils was determined as 70 % FA. Usually koff stands for the first-order rate constant of dissociation. A higher koff goes with a short-lived complex. For the molecule “FapC from Pseudomonas sp. UK4, wild type (from UniProt P0DXF5 25-250) (natural protein)”, the values for the koff in data set [2], in data set [3] and in data set [4] were 3.94e-14 s⁻¹, 9.11e-13 s⁻¹ and 1.96e-15 s⁻¹, respectively. As to “FapC from Pseudomonas putida F1, wild type (natural protein)”, in data set [5], the formic acid needed to dissolve half of the fibrils came out at 70 % FA.

B1: FapC UK4 Asn200Ala (natural protein, Pseudomonas sp. UK4)
chain: GPAEKWKPTPAPTGTVAAAVTDTQVSKDNKFDDTKTLNNAGANGSLSNSKGNLGANIAAGSGNQQDNAAAITSSAGDAATVFAVADIYQESKDNKFTNKGTQNNALLNNSANNSSGNVGVNVAAGQGNQQKNNLAIVTADGKNVAAASNTEQVSLDNHFLNEASSKHSYKPQYVVANAGLLNSANNASGNIGVNVAAGAGNQQSNTLTLGSGCTVCAAGTGSKLAF
notes: FapC, Pseudomonas sp; UK4, point mutant made on the FapC UK4 plasmid; Same construct as m1 but for the mutation; source: E. coli BL21 (DE3), purified (Ni-NTA in 7.5 M guanidine hydrochloride), desalted
As to B1, the binding result in data set [6] is recorded as “binds”.

B2: FapC UK4 Asn229Ala (natural protein, Pseudomonas sp. UK4)
chain: B1 chain with A176N, N205A
notes: as for B1
As for B2, the binding result in data set [6] is on record as “binds”.

B3: FapC UK4 Q89A (natural protein, Pseudomonas sp. UK4)
chain: B1 chain with Q65A, A176N
notes: FapC, Pseudomonas sp; UK4, point mutant made on the FapC UK4 plasmid; Same construct as m1 but for the mutation; also called Gln89 mutant; source: E. coli BL21 (DE3), purified (Ni-NTA in 7.5 M guanidine hydrochloride), desalted
Turning to B3, the binding result in data set [6] is recorded as “binds”.

B4: FapC UK4 Lys155Asp and Ser228Asp (natural protein, Pseudomonas sp. UK4)
chain: B1 chain with K131D, A176N, S204D
notes: FapC, Pseudomonas sp; UK4, double charge mutant made on the FapC UK4 plasmid; Same construct as m1 but for the mutations; also called cluster of four negative charges (Asp46, Asp90, Asp155, and Asp228); source: E. coli BL21 (DE3), purified (Ni-NTA in 7.5 M guanidine hydrochloride), desalted
As for B4, the binding result in data set [6] was “binds”.

B5: FapC UK4 Gly84Ala (natural protein, Pseudomonas sp. UK4)
chain: B1 chain with G60A, A176N
notes: FapC, Pseudomonas sp; UK4, point mutant made on the FapC UK4 plasmid; Same construct as m1 but for the mutation; also called G84A; source: E. coli BL21 (DE3), purified (Ni-NTA in 7.5 M guanidine hydrochloride), desalted
As to B5, the binding result in data set [6] is reported as “binds”.

B6: FapC UK4 Asn87Ala (natural protein, Pseudomonas sp. UK4)
chain: B1 chain with N63A, A176N
notes: FapC, Pseudomonas sp; UK4, point mutant made on the FapC UK4 plasmid; Same construct as m1 but for the mutation; also called Asn87 mutant; source: E. coli BL21 (DE3), purified (Ni-NTA in 7.5 M guanidine hydrochloride), desalted
Take B6: the binding result in data set [6] is given as “binds”.

B7: FapC UK4 Gly75Pro (natural protein, Pseudomonas sp. UK4)
chain: B1 chain with G51P, A176N
notes: as for B1
For B7, the binding result in data set [6] is recorded as “binds”.

B8: FapC UK4 Gly75Ala (natural protein, Pseudomonas sp. UK4)
chain: B1 chain with G51A, A176N
notes: as for B1
For B8, the binding result in data set [6] was “binds”.

B9: FapC UK4 Gln227Ala (natural protein, Pseudomonas sp. UK4)
chain: B1 chain with A176N, Q203A
notes: as for B1
For the molecule B9, in data set [6], the binding result is on record as “binds”.

B10: FapC UK4 N145A (natural protein, Pseudomonas sp. UK4)
chain: B1 chain with N121A, A176N
notes: as for B1
For the molecule B10, the binding result in data set [6] is “binds”.

B11: FapC UK4 Asp90Lys and Ser228Lys (natural protein, Pseudomonas sp. UK4)
chain: B1 chain with D66K, A176N, S204K
notes: FapC, Pseudomonas sp; UK4, double charge mutant made on the FapC UK4 plasmid; Same construct as m1 but for the mutations; also called cluster of three positive charges (Lys90, Lys155, and Lys228); source: E. coli BL21 (DE3), purified (Ni-NTA in 7.5 M guanidine hydrochloride), desalted
For B11, the binding result in data set [6] is reported as “binds”.
